Results on three molecules are retold here after article PMC9295118, “Tungsten Enzyme Using Hydrogen as an Electron Donor to Reduce Carboxylic Acids and NAD^+” (ACS Catalysis, 2022).

Data set [1] deals with T1, BaDH (Aromatoleum aromaticum, UniProt Q5P459).
T1 construct: gene adh; recombinant, expressed in E. coli BL21(DE3), purified; details in supplement
T1 sequence (Q5P459 1-362): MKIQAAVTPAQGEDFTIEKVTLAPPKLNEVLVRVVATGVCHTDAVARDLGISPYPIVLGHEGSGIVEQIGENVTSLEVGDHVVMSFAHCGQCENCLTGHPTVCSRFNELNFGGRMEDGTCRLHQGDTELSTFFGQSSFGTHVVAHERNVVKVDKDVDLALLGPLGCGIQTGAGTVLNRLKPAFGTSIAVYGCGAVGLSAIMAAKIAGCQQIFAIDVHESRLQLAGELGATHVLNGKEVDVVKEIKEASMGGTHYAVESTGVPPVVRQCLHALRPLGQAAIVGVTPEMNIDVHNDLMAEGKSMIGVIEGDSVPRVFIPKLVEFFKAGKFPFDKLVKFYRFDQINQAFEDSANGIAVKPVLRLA
Kind of data set: coupled assay with AORAa, NADPH at […] nm and HPLC of benzyl alcohol. Type of data set: biochemical. As to conditions: 100 mM citric buffer pH 5.5, 30 °C, benzaldehyde formed in situ by AORAa.

Substrate in data set [2]: NC(=O)c1ccc[n+]([C@@H]2O[C@H](COP(=O)(O)OP(=O)(O)OC[C@H]3O[C@@H](n4cnc5c(N)ncnc54)[C@H](O)[C@@H]3O)[C@@H](O)[C@H]2O)c1
Briefly: purified protein. Type of data set: biochemical, Aromatoleum aromaticum. The following applies: 2.5% H2 as electron donor, 100 mM Tris/HCl pH 8.0, 30 °C, anaerobic, FAD gamma-subunit site expected.

Substrate in data set [3]: O=C(O)c1ccccc1
Briefly: purified protein. Format: biochemical, Aromatoleum aromaticum. As to conditions: 2.5% H2 as electron donor, 0.6 mM NADPH, 100 mM citric buffer pH 5.5, 30 °C, W-cofactor beta-subunit site.

Substrate in data set [4]: O=Cc1ccccc1
Briefly: steady-state kinetics, initial rates of benzaldehyde oxidation with NAD+. Type of data set: biochemical, Aromatoleum aromaticum. As to conditions: 1 mM NAD+, Tris/HCl pH 8.0, 30 °C, aerobic, W-cofactor beta-subunit site. An excerpt: steady-state kinetics, initial rates of benzaldehyde oxidation with NAD+ on AORAa

With `O=Cc1ccccc1` [benzaldehyde], in data set [1], the “coupled assay with AORAa, NADPH at 365 nm and HPLC of benzyl alcohol” value is on record as “it also catalyzed the reduction of benzaldehyde with either NADH or NADPH”.
Same read-out and setting: in the case of `NC(=O)C1=CN([C@@H]2O[C@H](COP(=O)(O)OP(=O)(O)OC[C@H]3O[C@@H](n4cnc5c(N)ncnc54)[C@H](OP(=O)(O)O)[C@@H]3O)[C@@H](O)[C@H]2O)C=CC1` [NADPH] it was “confirming that NADPH was only turned over by BaDH, not by AORAa”.

B1: AORAa (Aromatoleum aromaticum EbN1) (protein)
chain 1: MGWNRKVLRVNLAEGTCTPEPLNMQWADEYLGSRGLATKYLVSETDPKVDPLSPDNKMIMATGPLTGTMASTGGRYTVVTKGPLTGAIACSNSGGFFGAEMKFAGWDMVIFEGRSPTPVYLFIENERAELRDASYLWGRSCWETEESIRAQHQDPLIRVSSIGRAGENQVMFACIVNDLHRAAGRSGVGAVMGSKNLKAVAIRGTKGVSGIRDFPGFVRATSEAKKVLAGNPVTSEGLPKFGTQVLMNVINEMGALPTRNHRDVQFEDASKISAEAMHEKRPSDGKPQLVTNAACFGCTIACGRISAIDKTHFTVKNNPKYWGASGGLEYEAAWALGAANGVGDLEALQYANLLCNEQGMDPISFGATVGAAMELYETGVLTKERIGLDAPFGSADALAKLAEMTATGEGFGKEIGLGSKRLCEKYGHPELSMSVKGQEFPAYDSRGIQGMGLAYATSNRGACHLRGYTVASEVLGVPVKTDPHVIEGKAELVKAFQDATAVFDSAGICVFTSFAWTLADVQPQIAAACDGDWSMDKLATVGERIWNMERQFNNAAGLGAQDDNLPPRLTSEPAKSGPAKGMVNRLAEMLPEYYGVRGWTPEGTPTPETLSRLGLS
chain 2: MKHVILGNGPAGVIAAETLRRAAPTDDILLFGSEDAPPYSRMAIPYLLEGNIDESGTWLRKSPGHFDRLRIHEMRGRAVSLDSERRRILFDDGHFESWDRLLIATGSHPVRPPIPGIDLPEVQTCWTLEDARAIARFATPGARVLQLGAGFIGCIIMEALAARGVELTVVEMGDRMVPRMMTPTAGGMIRKWVEDQGVRVVTNAGVSRIDCRASNDAPLDVTLSTGEVVVADLVIVAAGVAPNIAFLEATPVHVAKGVLVDDRLQTSVPGIFAAGDVAEAPDLFTGAHLVAAIQPNAADQARVAALNMAGHEARLKGVLAINVLDTLGLISSSFGQWWGEERERGGAGVEHVDEAAYRYLSLQFKDDVLIGATSIGLTEHVGALRGLIHGRVRLGEWKERLLHSPLQFVDAYIARSQQPMALVR
notes: full-length AorABC, N-terminal Twin-Strep-tag on AorA, co-expressed with AorDE in Aromatoleum evansii; (alpha-beta)2-gamma complex, 218 kDa; with Aldehyde oxidoreductase polyferredoxin (iron-sulfur) subunit alpha
For B1, in data set [2], the Km amounted to 21.7 ± 2.7 µM, the Vmax turned out to be 3.7 µmol/min/mg, the kcat stood at 13.4 s⁻¹ and the kcat/Km came to 600000 M⁻¹ s⁻¹. In data set [3], the Km amounted to 33.7 mM and the kcat was found to be 1.4 s⁻¹. In data set [4], the Michaelis constant (Km) turned out to be 39.3 ± 6.6 µM, the Vmax is 33.8 µmol/min/mg, the kcat was determined as 123 s⁻¹ and the kcat/Km is 3.1e+06 M⁻¹ s⁻¹.

The term Km denotes the concentration of substrate that gives half-maximal velocity. By Vmax is commonly meant the rate approached at saturating substrate. As a reminder, the kcat is the maximal rate divided by the concentration of active sites. The term kcat/Km denotes the turnover number divided by the Michaelis constant.
